Test [1] addresses T1, post-F protein (RSV-A2 F protein with P102A, I379V, M447V and fusion peptide positions 137-146 removed, … (respiratory syncytial virus, RSV-A2, UniProt P03420 26-524)).
T1 construct: Signal peptide, furin processing and the residue of the HRV 3C site left after cleavage are not described; also called RSV-post F; post-fusion F
Description: hybridoma screening, RSV-post F enzyme-linked immunosorbent assay.

The target in test [2] is T2, RSV F protein in RSV-A2 virus preparation (Western Blot sample) (respiratory syncytial virus A2 strain, UniProt P03420 26-574).
T2 construct: Loaded boiled (denatured) or non-boiled (non-denatured); also called RSV A2 strain
Description: Western Blot, non-boiled sample. A general note: A western blot detects proteins with antibodies after separation by electrophoresis.

Test [3] addresses T3, RSV F protein on Hep2 cells infected with RSV-A2 (immunofluorescent assay) (respiratory syncytial virus A2 strain, UniProt P03420 26-574).
T3 construct: whole, on cells
Description: immunofluorescence on RSV-A2-infected Hep2 cells, confocal microscopy.

B1: monoclonal antibody 5C4 (antibody, V domains shown)
VH: EVQLQQSGAELVKPGASVKLSCTASGFNIKDTFFHWVKQRPEQGLEWIGRIDPADGHTKYDPKFQGKATITADTSSNTAFLQLSSLTSEDTAVYYCATTITAVVPTPYNAMDYWGQGTSVTVSS
VL: DIVLTQSPASLAVSLGQRTTISCRASESVDSFDNSFIHWYQQKPGQPPKLLIFLASSLESGVPARFSGSGSRTDFTLTIDPVEADDAATYYCQQSNEDPFTFGSGTKLEIKR
notes: Mouse hybridoma antibody purified from ascites; kappa light chain; also called 5C4 monoclonal antibody; 5C4 antibody
On to B1, for which the binding result is “no binding” in test [1], “binds” in test [2] and “binds” in test [3].

(Values after patent US20160031972A1 (XIAMEN INNOVAX BIOTECH, published 2016).)
